The text below walks through data of patent US20190048074A1 (Regeneron, published 2019).

The target in assay [1] is T1, full-length human APLNR (human, UniProt P35414 1-380).
T1 construct: Stably expressed on HEK293/CRE-luc/hAPLNR cells (FACS, CRE-luc assays) and on CHO/hAPLNR cells (pERK assays); also called hAPLNR; apelin receptor
T1 sequence: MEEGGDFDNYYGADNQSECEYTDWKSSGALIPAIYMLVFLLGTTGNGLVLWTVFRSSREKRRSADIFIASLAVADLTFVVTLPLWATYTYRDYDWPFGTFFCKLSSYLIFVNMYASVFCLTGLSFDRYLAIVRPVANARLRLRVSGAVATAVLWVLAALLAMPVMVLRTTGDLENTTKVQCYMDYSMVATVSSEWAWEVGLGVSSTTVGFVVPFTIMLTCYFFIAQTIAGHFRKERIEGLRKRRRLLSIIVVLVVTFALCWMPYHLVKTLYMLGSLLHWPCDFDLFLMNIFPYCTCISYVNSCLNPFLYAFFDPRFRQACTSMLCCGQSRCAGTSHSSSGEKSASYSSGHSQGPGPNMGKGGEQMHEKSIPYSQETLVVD
Briefly: FACS, 10 µg/mL antibody, HEK293/CRE-luc/hAPLNR cells.

The target in assay [2] is T1, full-length human APLNR. Briefly: cell-based or functional assay.
Assay [3] concerns the target T2, full length cynomolgus APLNR (cynomolgus monkey (Macaca fascicularis), UniProt O97666 1-380 (rhesus entry)).
T2 construct: Stably expressed on HEK293/CRE-luc/MfAPLNR cells; also called MfAPLNR; mfAPLNR
T2 sequence: T1 sequence with F101S, L167F, E194D, I290V
The experiment in a line: FACS, 10 µg/mL antibody, HEK293/CRE-luc/MfAPLNR cells.

The target in assay [4] is T2, full length cynomolgus APLNR. The description is as above. This is another data set of the same source.
Assay [5] has as its target T1, full-length human APLNR. Briefly: FACS, 10 µg/mL antibody, HEK293/CRE-luc/hAPLNR cells. The source holds these as a separate data set.
Assay [6] addresses T1, full-length human APLNR. The experiment in a line: cell-based or functional assay. The source holds these as a separate data set.
For assay [7], the target named is T3, human Apelin receptor (hAPLNR) in PathHunter eXpress AGTRL1 CHO-K1 β-Arrestin cells (human, UniProt P35414 1-380).
T3 sequence: T1 sequence
Briefly: cell-based or functional assay.

Assay [8] addresses T1, full-length human APLNR. The experiment in a line: cell-based or functional assay. The source holds these as a separate data set.
In assay [9] the target is T1, full-length human APLNR. The experiment in a line: cell-based or functional assay. The source holds these as a separate data set.
The target of assay [10] is T1, full-length human APLNR. The experiment in a line: cell-based or functional assay. This is another data set of the same source.

Changes are numbered by the printed parent chain. Names and notes keep the numbering of the source. Read-outs that look alike come from different tables or passages of the source. Some results are limits rather than exact numbers.

B1: H1M9207N (antibody, V domains shown)
VH: EVQLVESGGGLAQPGGSLRLSCAASGFTFSNYWMSWVRQAPGKGLEWVANIKQDGSEKYYLESVKGRFTISRDNAKNLLYLQMNSLRAEDTAVFYCARPGLLRFLEPGRRYYSGMNVWGQGTTVTVSS
VL: DIQLTQSPSFLSASVGDRVTITCWASQGIRSYLAWYQQKPGKAPKLLIYAASTLQSGVPSRFSGSGSGTEFTLTISSLQPEDFATYYCQQFNSYPWTFGQGTKVEIK
notes: Human variable domains, mouse IgG1 Fc (H1M prefix)
For B1, the “Binding Ratio of Geom. Mean to Unstained Cells” value (“Binding Ratio of Geom. Mean” below) in [1] was 2180 fold; in assay [3] it was 1310 fold. Also, the “% Inhibition at 100 nM antibody, in the presence of 100 ρM Apelin (at 5 µM Forskolin)” value (“% Inhibition at 100 nM antibody” for short) in [2] is 83%. Also, the “IC50 [M], in the presence of 100 ρM Apelin (at 5 µM Forskolin)” value (“IC50 [M] … (at 5 µM Forskolin)” below) in assay [2] was 3e-09 M.

B2: H4H9101P (antibody, V domains shown)
VH: QVQLVQSGAEVKKPGASVEVSCKASGYTFTDYYIHWIRQAPGQGLEWMGWINPDSGRTNYAQKFQVRVTMTRDTSITTAYMELNRLKSDDTAVYYCARGPLRGYSGYDFFDYWGQGTLVTVSS
VL: B1 VL with R30S, T85S, Y87F, F91L, Y94N, W96R
notes: Fully human, human IgG4 Fc
Consider B2, for which the “Binding Ratio of Geom. Mean” value was found to be 2 fold in [4] and 3 fold in assay [5].

B3: H4H9103P (antibody, V domains shown)
VH: EVQLVESGGGLVQPGRSLRLSCAASGFTFDDYAMHWVRQVPGKGLEWVSGITWNSGDIGYADSVKGRFTISRDNAKNSLYLQMNSLRAEDTALYYCTKDKDSSGYYGIDVWGQGTTVTVSS
VL: DIQMTQSPSSVSASVGDRVTITCRASQGIRTWLAWYQQKPGKAPKLLIYAASSLQSGVPSRFSGSESGTDFTLTISSLQPEDFATYYCQQANSFPFTFGPGTKVDIK
notes: Fully human, human IgG4 Fc
In the case of B3, the “Binding Ratio of Geom. Mean” value was 2 fold in assay [4] and 3 fold in assay [5].

B4: H4H9093P (antibody, V domains shown)
VH: EVQLVESGGGLVKPGGSLRLSCAASGITFSNAWMSWVRQAPGKGLEWVGRFKGKADGGTVDYAAPVKGRFTISRDDSKNTLYLQMNSLKNEDTAVYYCTTGRITMVRGVLGYWGQGTLVTVSS
VL: not shown
B4: the “% Inhibition at 100 nM mAb, in the presence of 100 ρM Apelin (at 7.5 µM Forskolin)” value in [6] amounted to 3%. Also, the “% Activation at 500 nM antibody or Apelin-antibody fusion” value in [7] stood at 2%.

B5: H2aM9232N (antibody, V domains shown)
VH: QVKLVESGGGVVQPGRSLRLSCAASGFTFSNYVIHWVRQAPGKGLEWVAVIWYDGSNKYYADSVKGRFTISRDNSKNTLYLQMNSLRAEDTAVYYCARDRVVRGVDYYYYYGLDVWGQGTSVTVSS
VL: EIVMTQSPATLSVSPGERATLSCRASQSVRSNLAWYQQKPGQAPRLLIYGASSRATGIPARFSGTGSGTEFTLTISSLQSDDFAVYYCQQYNKWPRTFGQGTKVEIK
notes: Human variable domains, mouse IgG2a Fc
For the molecule B5, the “Binding Ratio of Geom. Mean” value in assay [1] came to 2860 fold. Besides, in [2], the “% Inhibition at 100 nM antibody” value is 98% and the “IC50 [M] … (at 5 µM Forskolin)” value amounted to 4.2e-09 M. For the same molecule, in assay [3], the “Binding Ratio of Geom. Mean” value stood at 678 fold. In addition, in assay [8], the “Inhibiting IC50 (M), pERK/total ERK assay, CHO/hAPLNR cells” value amounted to 2.09e-07 M.

B6: H4H9104P (antibody, V domains shown)
VH: QVQLVESGGDLVKPGGSLRLSCAASGFTFSDYYMNWIRQAPGKGLEWVSYISSSGSTIHYADSVKGRFTISRDNAKNLVYLRMNSLRAEDTAVYFCAREREVHDYSDPYFFFYGMDVWGQGTTVTVSS
VL: DIQMTQSPSSVSASVGDRVTITCRASQDVSSWLAWYQHKPGKAPKLLIFAASSLQSGVPSRFSGSGSGTDFTLTISSLQSEDFATYYCQQANSFPLTFGGGTKVEIK
notes: Fully human, human IgG4 Fc
For B6, the “Binding Ratio of Geom. Mean” value in assay [4] turned out to be 1 fold; in assay [5] it was 2 fold.

B7: H4H9209N (antibody, V domains shown)
VH: EVQLLESGGGLVQPGGSLRLSCAASGFTFSNYAMNWVRQAPGRGLEWVSAIHYDGSNSYYADSVKGRFTISRDNSKNTLYLQMNSLRAEDTAIYYCAILSRVYWGQGTLVTVSS
VL: DIQMTQSPSSLSASVGDRVTITCRASQGINNYLAWFQQKPGKAPKSLIYATSSLQSGVPSKFSGSGSGTDFTLTISSLQPEDFATYYCQQYNSYPLTFGGGTKVEIK
Take B7: in assay [9], the “% Inhibition at 100 nM mAb, in the presence of 100 ρM Apelin (at 10 µM Forskolin)” value amounted to 16% and the “IC50 [M], in the presence of 100 ρM Apelin (at 10 µM Forskolin)” value is 5.9e-09 M.

B8: H2aM9209N (antibody, V domains shown)
VH: B7 VH
VL: B7 VL
Take B8: the “% Inhibition at 100 nM antibody” value in assay [2] came out at 7%.

B9: H4H9112P (antibody, V domains shown)
VH: B2 VH
VL: DIQMTQSPSSLSAFVGDRVTITCRASQSISSYLNWYQQKPGKAPKLLIYTASTLQRGVPSRFRGSGSGTDFTLTISSLQPEDFATYYCHQTYSIPITFGQGTRLEIK
notes: Fully human, human IgG4 Fc
For B9, the “Binding Ratio of Geom. Mean” value in assay [4] and in assay [5] was 2 fold throughout.

B10: H2aM9222N (antibody, V domains shown)
VH: EVQLVESGGGLVQPGGSLRLSCAASGFTFSNYWMSWVRQAPGKGLEWVANIKQDGSERYYVGSVKGRFTISRGDAENSLYLQMNSLRAEDTAVYYCARDRFGYSAYDKGVRYYYGMDVWGQGTTVTVSS
VL: DIQMTQSPSSLSASVGDRVTITCRASQGIRNDLGWYQQKPGKAPKRLIYAASSLQSGVPSRFSGSGSGTEFTLTISSLQPEDFATYYCLQHNSYPRTFGQGTKVEIK
notes: as for B5
On to B10, for which, in assay [2], the “% Inhibition at 100 nM antibody” value stood at 11%. For the same molecule, the “% Activation at 500 nM mAb (at 7.5 uM Forskolin)” value (“% Activation at 500 nM mAb” below) in assay [10] amounted to 21%. In addition, the “Activating EC50 (M), pERK/total ERK assay, CHO/hAPLNR cells” value in assay [8] worked out at 4.79e-08 M.

B11: H4H9113P (antibody, V domains shown)
VH: B2 VH
VL: B10 VL with K45N, Q79H, Y87S, Y94F, R96L, Q100G
notes: Fully human, human IgG4 Fc
Regarding B11, the “Binding Ratio of Geom. Mean” value in assay [4] is 1 fold; in assay [5] it was 2 fold.

B12: H2aM9230N (antibody, V domains shown)
VH: B10 VH with N31S, Y32F, A40V, E46Q, R58K, G62D, G73D, D74N, E76K, A105V
VL: B10 VL with A13V, S77G, P80S, N92K
notes: as for B5
B12: in assay [1], the “Binding Ratio of Geom. Mean” value was found to be 2940 fold. For the same molecule, in assay [2], the “% Inhibition at 100 nM antibody” value was 49% and the “IC50 [M] … (at 5 µM Forskolin)” value was 2.4e-09 M. The “% Activation at 500 nM mAb” value in assay [10] was found to be 52%. The “Binding Ratio of Geom. Mean” value in [3] was 658 fold.

B13: H2aM9228N (antibody, V domains shown)
VH: B10 VH with Q39L, E76K, Y106F
VL: B10 VL
notes: as for B5
On to B13, for which the “Binding Ratio of Geom. Mean” value in assay [1] stood at 1490 fold. For the same molecule, in assay [2], the “% Inhibition at 100 nM antibody” value amounted to 26% and the “IC50 [M] … (at 5 µM Forskolin)” value is above 1e-07 M. Further, in [10], the “% Activation at 500 nM mAb” value was 49%. The “Binding Ratio of Geom. Mean” value in assay [3] stood at 108 fold. In addition, the “Activating EC50 (M), pERK/total ERK assay, CHO/hAPLNR cells” value in [8] amounted to 6.41e-08 M.

B14: H2aM9227N (antibody, V domains shown)
VH: B10 VH with N31S, Y32F, A40V, R58K, G62D, G73D, D74N, E76K, A105F
VL: B10 VL with A13V, A51T, S77G
notes: as for B5
Turning to B14, the “Binding Ratio of Geom. Mean” value stood at 4100 fold in assay [1] and 1440 fold in assay [3]. Besides, the “% Inhibition at 100 nM antibody” value in [2] stood at 33%. Also, in [2], the “IC50 [M] … (at 5 µM Forskolin)” value amounted to 4.3e-09 M. The “% Activation at 500 nM mAb” value in assay [10] was determined as 45%.
